Data from the supplement of paper PMC7877785.
± gives the uncertainty stated by the source.

Assay: self-splicing fitness, log relative to wild type (ln ratio); higher = more splicing; Tetrahymena group I intron in knt gene, E. coli kanamycin selection, DiMSum; sequences stand for … in CUCUCU…GGAGGGAAAAGUUAUCAGGCAUGCACCUGGUAGCUAGUCUUUAAACCAAUAGAUUGCAUCGGUUUAAAAGGCAAGACCGUCAAAUUGCGGGAAAGGGGUCAACAGCCGUUCAGUACCAAGUCUCAGGGGAAACUUUGAGAUGGCCUUGCAAAGGGUAUGGUAAUAAGCUGACGGACAUGGUCCUAACCACGCAGCCAAGUCCUAAGUCAACAGAUCUUCUGUUGAUAUGGAUGCAGUUCACAGACUAAAUGUCGGUCGGGGAAGAUGUAUUCUUCUCAUAAGAUAUAGUCGGACCUCUCCUUAAUGGGAGCUAGCGGAUGAAGUGAUGCAACACUGGAGCCGCUGGGAACUAAUUUGUAUGCGAAAGUAUAUUGAUUAGUUUUGGAGUACUCGUGGUCG
How it was run: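 Colonies from six replicate transformations of E. coli BL21(DE3) were pooled and amplicon-sequenced on an Illumina HiSeq 2500. The library placed an intron with all eight P1ex-region nucleotides randomised inside the knt kanamycin-resistance gene on pET-22b(+), and cells grew overnight at 37°C or 30°C on LB agar with or without 25 μg/mL kanamycin (plus 100 μg/mL carbenicillin, 50 μM IPTG, 0.2% rhamnose). Fitness is the DiMSum error-weighted combination of wild-type-normalised replicate fold changes, kanamycin versus none.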

Sequence	self-splicing fitness (ln) (30 °C)	self-splicing fitness (ln) (37 °C)
UGAAAGCAAUAUUACGGCUG	0.281 ± 0.088	0.316 ± 0.11
UGAAAGCAAUAUUACGGGAU	-2.6 ± 0.18	-3.48 ± 0.39
UGAAAGCAAUAUUACGGGUC		-2.71 ± 0.25
UGAAAGCAAUAUUACGUACA	-0.776 ± 0.044	0.0429 ± 0.066
UGAAAGCAAUAUUACGUACC	-1.36 ± 0.12	-1.61 ± 0.17
UGAAAGCAAUAUUACGUAUA	-1.56 ± 0.13	-1.28 ± 0.12
UGAAAGCAAUAUUACGUCCA	0.114 ± 0.088	-0.497 ± 0.11
UGAAAGCAAUAUUACGUGAG	-0.356 ± 0.06	-0.158 ± 0.084
UGAAAGCAAUAUUACGUGCU	-2.79 ± 0.12	-1.32 ± 0.12
UGAAAGCAAUAUUACGUUAC	-3.44 ± 0.25	-2.35 ± 0.21
UGAAAGCAAUAUUACGUUUC	-3.14 ± 0.34	-2.03 ± 0.28
UGACAGCAAUAUUACGAAGC	-3.56 ± 0.37	-3.61 ± 0.39
UGACAGCAAUAUUACGAAUU	-2.9 ± 0.2	-1.53 ± 0.21
UGACAGCAAUAUUACGACUU	-0.452 ± 0.068	0.389 ± 0.091
UGACAGCAAUAUUACGAGCG	-0.264 ± 0.067	-0.0667 ± 0.079
UGACAGCAAUAUUACGAGUU	-3.89 ± 0.2	-2.86 ± 0.19
UGACAGCAAUAUUACGAUAC	-3.36 ± 0.22	-1.61 ± 0.19
UGACAGCAAUAUUACGAUCG	0.0362 ± 0.077	0.761 ± 0.1
UGACAGCAAUAUUACGAUUA	-0.338 ± 0.059	0.419 ± 0.066
UGACAGCAAUAUUACGCACU	0.279 ± 0.051	-0.101 ± 0.059
UGACAGCAAUAUUACGCAUC	-4 ± 0.27	-1.28 ± 0.2

Sequence	self-splicing fitness (ln) (30 °C)	self-splicing fitness (ln) (37 °C)
UGACAGCAAUAUUACGCCCC	-0.414 ± 0.17	-0.391 ± 0.26
UGACAGCAAUAUUACGCCGU	-2.54 ± 0.14	-1.85 ± 0.15
UGACAGCAAUAUUACGCGCU	-0.554 ± 0.086	-0.657 ± 0.099
UGACAGCAAUAUUACGCUCC	-1.28 ± 0.13	-0.275 ± 0.14
UGACAGCAAUAUUACGCUGA	-2.69 ± 0.17	-2.08 ± 0.24
UGACAGCAAUAUUACGGAAA	-2.03 ± 0.12	-1.75 ± 0.14
UGACAGCAAUAUUACGGAAU	-4.15 ± 0.28	-1.55 ± 0.17
UGACAGCAAUAUUACGGACU	-0.289 ± 0.063	0.203 ± 0.078
UGACAGCAAUAUUACGGCCA	-0.00432 ± 0.11	0.373 ± 0.13
UGACAGCAAUAUUACGGCCC	-0.701 ± 0.12	-0.967 ± 0.18
UGACAGCAAUAUUACGGCUU	-0.693 ± 0.075	-0.053 ± 0.092
UGACAGCAAUAUUACGGUCC	-0.746 ± 0.18	-0.15 ± 0.23
UGACAGCAAUAUUACGUACG	-0.78 ± 0.071	-0.016 ± 0.083
UGACAGCAAUAUUACGUAUU	-3.43 ± 0.15	-1.78 ± 0.11
UGACAGCAAUAUUACGUCGC		-1.64 ± 0.45
UGACAGCAAUAUUACGUCUG	-0.69 ± 0.072	-0.119 ± 0.093
UGACAGCAAUAUUACGUGAC	-2.64 ± 0.12	-1.37 ± 0.19
UGACAGCAAUAUUACGUGGA	-3 ± 0.21	-2.31 ± 0.2
UGACAGCAAUAUUACGUUCU	-0.552 ± 0.071	-0.321 ± 0.089
UGAGAGCAAUAUUACGAACA	-0.706 ± 0.27	-0.855 ± 0.2
UGAGAGCAAUAUUACGAACU	-3.05 ± 0.43	-2.02 ± 0.24
